Target: T1, full-length gp130 with a C-terminal EYMPME (Glu-Glu) epitope tag, P40189
T1 chain: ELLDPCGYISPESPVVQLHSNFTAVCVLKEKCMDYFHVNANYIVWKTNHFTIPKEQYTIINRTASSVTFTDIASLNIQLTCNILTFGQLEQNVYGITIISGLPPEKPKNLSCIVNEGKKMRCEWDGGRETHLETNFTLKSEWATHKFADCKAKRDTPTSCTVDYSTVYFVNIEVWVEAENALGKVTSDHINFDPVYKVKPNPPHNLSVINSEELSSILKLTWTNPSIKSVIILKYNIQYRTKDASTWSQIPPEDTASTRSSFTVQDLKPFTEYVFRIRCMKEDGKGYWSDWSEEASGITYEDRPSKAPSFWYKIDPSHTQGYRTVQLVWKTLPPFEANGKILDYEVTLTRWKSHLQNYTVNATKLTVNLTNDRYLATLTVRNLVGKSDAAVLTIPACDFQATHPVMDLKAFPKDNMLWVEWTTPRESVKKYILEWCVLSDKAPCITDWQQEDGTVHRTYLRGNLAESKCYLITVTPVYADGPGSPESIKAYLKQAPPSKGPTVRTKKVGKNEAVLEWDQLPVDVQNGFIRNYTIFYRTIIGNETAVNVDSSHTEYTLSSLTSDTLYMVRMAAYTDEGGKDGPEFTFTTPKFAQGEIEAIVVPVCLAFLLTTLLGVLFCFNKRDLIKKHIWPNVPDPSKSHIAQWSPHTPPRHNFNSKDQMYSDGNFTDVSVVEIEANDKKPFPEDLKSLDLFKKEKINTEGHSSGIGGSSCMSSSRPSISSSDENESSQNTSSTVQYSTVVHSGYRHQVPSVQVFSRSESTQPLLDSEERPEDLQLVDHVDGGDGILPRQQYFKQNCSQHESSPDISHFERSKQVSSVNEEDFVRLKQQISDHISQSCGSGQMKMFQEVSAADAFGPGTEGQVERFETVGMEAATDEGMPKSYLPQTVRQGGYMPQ
Experiment: SEC
Settings: remark: other sources report otherwise

stoichiometry N: 2
B1: full-length gp130 with a C-terminal EYMPME (Glu-Glu) epitope tag, P40189 23-918 (receptor)
chain: T1 chain
